Reference: patent US20190389955A1 (HEMOGENYX PHARMACEUTICALS, published 2019)

T1: human FLT3/FLK2 receptor protein (human, UniProt P36888 27-993)
T1 construct: whole, on cells; Cell-surface target in the flow cytometry experiments (REH cells and SP2/0-Hu-FLT3 cells); also called CD135; Hu-FLT3
T1 sequence (looked up): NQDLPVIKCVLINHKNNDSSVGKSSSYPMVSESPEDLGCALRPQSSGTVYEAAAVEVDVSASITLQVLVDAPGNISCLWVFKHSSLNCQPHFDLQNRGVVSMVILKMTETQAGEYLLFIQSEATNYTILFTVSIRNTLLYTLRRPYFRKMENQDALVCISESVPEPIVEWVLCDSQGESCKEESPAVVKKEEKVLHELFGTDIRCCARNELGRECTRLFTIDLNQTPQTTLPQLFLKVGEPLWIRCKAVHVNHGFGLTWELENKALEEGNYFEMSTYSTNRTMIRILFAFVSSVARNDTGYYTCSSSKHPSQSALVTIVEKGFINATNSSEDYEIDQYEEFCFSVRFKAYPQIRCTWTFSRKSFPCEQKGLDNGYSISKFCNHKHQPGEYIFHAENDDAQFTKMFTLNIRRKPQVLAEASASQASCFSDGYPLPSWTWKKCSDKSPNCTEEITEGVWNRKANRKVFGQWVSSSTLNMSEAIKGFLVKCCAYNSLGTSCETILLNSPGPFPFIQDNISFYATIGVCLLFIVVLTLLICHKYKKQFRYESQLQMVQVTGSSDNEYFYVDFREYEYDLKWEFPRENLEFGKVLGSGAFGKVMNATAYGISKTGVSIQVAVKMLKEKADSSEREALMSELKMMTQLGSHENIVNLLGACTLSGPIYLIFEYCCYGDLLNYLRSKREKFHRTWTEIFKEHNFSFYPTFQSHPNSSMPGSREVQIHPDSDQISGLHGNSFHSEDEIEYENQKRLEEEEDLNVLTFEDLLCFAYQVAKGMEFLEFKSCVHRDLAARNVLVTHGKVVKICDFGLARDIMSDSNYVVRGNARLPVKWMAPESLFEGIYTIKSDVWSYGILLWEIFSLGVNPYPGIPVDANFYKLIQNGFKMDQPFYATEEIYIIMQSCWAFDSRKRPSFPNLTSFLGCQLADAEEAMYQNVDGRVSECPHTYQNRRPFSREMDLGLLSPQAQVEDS

T2: FLT3/FLK2 antigen (as used for Table 6) (human, UniProt P36888 27-541, limits assumed)
T2 construct: also called human FLT3/FLK2 receptor protein
T2 sequence (looked up): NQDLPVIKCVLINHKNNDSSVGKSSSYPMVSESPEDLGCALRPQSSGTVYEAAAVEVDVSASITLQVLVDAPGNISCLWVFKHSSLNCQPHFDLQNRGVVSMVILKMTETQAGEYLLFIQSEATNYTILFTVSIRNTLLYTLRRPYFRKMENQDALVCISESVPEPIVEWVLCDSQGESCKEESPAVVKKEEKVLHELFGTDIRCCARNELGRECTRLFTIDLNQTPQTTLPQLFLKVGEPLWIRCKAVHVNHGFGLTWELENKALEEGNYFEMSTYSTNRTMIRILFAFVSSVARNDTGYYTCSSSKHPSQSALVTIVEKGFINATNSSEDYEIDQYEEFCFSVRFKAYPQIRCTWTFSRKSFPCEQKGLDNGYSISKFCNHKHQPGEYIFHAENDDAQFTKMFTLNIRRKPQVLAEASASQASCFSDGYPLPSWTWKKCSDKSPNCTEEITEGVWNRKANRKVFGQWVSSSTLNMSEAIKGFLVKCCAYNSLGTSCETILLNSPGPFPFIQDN


Key:
[1] = molecular target: T1, human FLT3/FLK2 receptor protein; assay: flow cytometry, purified antibody on SP2/0 cells expressing human FLT3/FLK2; same table: unstained 6063, secondary Ab 9522, isotype 11518
[2] = molecular target: T1, human FLT3/FLK2 receptor protein; assay: flow cytometry titration on REH cells, MFI against antibody concentration; the box prints no unit, the axis is printed 'mg/ml', the text gives ng/ml
Method: (§1) Specificity of the monoclonal antibodies was determined by evaluating their affinity to the FLT3/FLK2 antigen. To define affinity of the anti-human FLT3/FLK2 antibodies, an Effective Concentration (EC) curve was built using flow cytometry. Nine monoclonal antibody clones were used to stain human REH cells that endogenously express human FLT3/FLK2. The concentration of the clones ranged from 1 ng/ml (6.25 pM) to 10,000 ng/ml (62.5 nM). […] The sequences of the clones are shown below.

[3] = molecular target: T1, human FLT3/FLK2 receptor protein; assay: flow cytometry, hybridoma supernatant on REH cells; same table: unstained 1292, secondary Ab alone 6905 (0.78%), isotype 13307 (12%)
[4] = molecular target: T1, human FLT3/FLK2 receptor protein; assay: flow cytometry titration on REH cells; axis printed 'mg/ml', the text gives ng/ml
Method: as §1

[5] = molecular target: T2, FLT3/FLK2 antigen (as used for Table 6); assay: kinetic fit, method not stated (Table 6)
[6] = molecular target: T1, human FLT3/FLK2 receptor protein; assay: flow cytometry titration on REH cells, MFI against antibody concentration; the box prints no unit, the axis is printed 'mg/ml', the text gives ng/ml; clone taken from the legend paragraph 65 (FIG. 5E: Ab1-18New)
Method: as §1

| Binder | MFI [1] | EC50 [2] [µg/mL] | % POSITIVE CELLS [3] [%] | MFI (IgC FITC) [3] | EC50 (read off the curve) [4] [µg/mL] | Kd [5] [nM] | koff [5] [s⁻¹] | kon [5] [M⁻¹ s⁻¹] | EC50 [6] [µg/mL] |
| --- | --- | --- | --- | --- | --- | --- | --- | --- | --- |
| MHC1696-2-8IA (antibody, V domains shown, Mouse hybridoma monoclonal antibody; also called A281A) VH: EIQLQQSGPELVKPGASVKVSCKASGYSFIDYNMYWVKQSHGKSLEWIGYINPYNGGTSNNQKFKDKATLTVDKSSSTAFMHLNSLTSEDSAVYYCARGTTGDYWGQGTTLTVSS VL: DTVLTQSPATLSVTPGDSVSLSCRASQSISNNLHWYQQKSHESPRLLIKYGFQSISGIPSRFSGSGSGTDFTLRINSVETEDFGMYFCQQTNSWPLTFGAGTKLELK | 128000 | 0.0902 | 30 | 11000 | ~0.1 | 0.0503 | 0.000111 | 2.21e+06 |  |
| MHC1693-3-16HA (antibody, V domains shown, Mouse hybridoma monoclonal antibody; also called Ab3-16HA) VH: EVQLQQSGAELVRPGALVKLSCKGSGFNIKDYYIHWVKQRPEQGLEWIGRIDPENDITMYDPKFQGKASITADTSSNTAYLQLSSLTSEDTAVYYCARNGNFFAYWGQGTLVTVSA VL: not shown | 206000 |  | 57 | 15200 |  |  |  |  |  |
| MHC1695-3-30A (antibody, V domains shown, Mouse hybridoma monoclonal antibody) VH: QVTLKESGPGILQPSQTLSLTCSFSGFSLSTSHMGVGWIRQPSGKGLEWLLHILWNDSVYYNPALKSRLTISKDTYNKQVFLKIANVDTADTATYYCARIVYYGISYVGYFDVWGAGTTVTVSS VL: DIQMTQSPSSLSASLGERVSLTCRASQEISGYLSWLQQKPDGTIKRLIYAASTLNSGVPRRFSGSRSGSDYSLTISSLESEDFADYYCLQYASYPFTFGSGTKLEIK | 151000 |  | 48 | 13000 | ~1 |  |  |  |  |
| MHC1692-1-23DA (antibody, V domains shown, Mouse hybridoma monoclonal antibody (detected with anti-mouse IgG); also called Ab1-23DA) VH: QVTLKESGPGILQPSQTLSLTCSFSGFSLSTSTMGVGWIRQPSGKGLEWLLHILWNDSKYYNPALKSRLTISKDTYNKQVFLKIANVDTADTATYYCARIVYYSTYVGYFDVWGAGTTVTVSS VL: DIQMTQSPSSLSASLGERVSLTCRASQEISGYLSWLQQKPDGTIKRLIYAASTLHSGVPKRFSGSRSGSDYSLTISRLESEDVADYYCLQYASYPFTFGSGTKLEIR | 119000 | 0.0701 | 49 | 13300 | ~0.06 |  |  |  |  |
| MHC1694-1-18BA (antibody, V domains shown, Mouse hybridoma monoclonal antibody; also called Ab1-18New) VH: QVTLKESGPGILQPSQTLSLTCSFSGFSLSTSTMGVGWIRQPSGKGLEWLLHILWNDSKYYNPALKSRLTISKDTYNKQVFLKIANVDTADTATYYCARIVYYSTYVGYFDVWGAGTTVTVSS VL: DIQMTQSPSSLSASLGERVSLTCRASQEISGYLSWLQQKPDGTIKRLIYAASTLHSGVPKRFSGSRSGSDYSLTISRLESEDVADYYCLQYASYPFTFGSGTKLEIR |  |  | 58 | 14700 | ~0.08 | 0.00576 | 1.42e-05 | 2.46e+06 | 0.0788 |
